T1: human OT-R (Homo sapiens, UniProt P30559)
T1 construct: expressed in transfected cells; host or cells: HEK cells
T1 sequence (P30559 1-389): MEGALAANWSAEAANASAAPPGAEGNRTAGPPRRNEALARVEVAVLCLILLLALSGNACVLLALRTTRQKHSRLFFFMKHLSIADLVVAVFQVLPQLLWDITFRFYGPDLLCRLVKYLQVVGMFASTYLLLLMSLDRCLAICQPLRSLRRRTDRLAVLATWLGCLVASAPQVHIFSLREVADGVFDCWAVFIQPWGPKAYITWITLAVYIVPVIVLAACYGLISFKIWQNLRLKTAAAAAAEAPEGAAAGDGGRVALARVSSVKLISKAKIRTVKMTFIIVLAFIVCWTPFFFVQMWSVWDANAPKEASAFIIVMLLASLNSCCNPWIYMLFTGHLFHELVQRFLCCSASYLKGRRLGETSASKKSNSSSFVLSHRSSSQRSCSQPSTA

B1: GMP synthase (protein, listed as Lactobacillus plantarum)
chain: MAKTDTASFDSILVLDFGSQYNQLITRRIRDFGVYSELLPNTITAEEIKARHPKGIIFSGGPNSVYDDGAFRVDPEIFKLGLPILGICYGMQLMTYTLAGGKVESADNREYGKANIDVTSDSATLFKDTPAEQSVWMSHGDLVTQAPDGFDVVATSKNCPIAAIQDVDRKLYGIQFHAEVRNTDYGNDILRHFAFDVCQAEANWSMDDFIDMQIEKIRAEVGDKKVLLGLSGGVDSSVVGVLLHKAIGTQLTSIFVDHGLLRKGEADQVMASLEGKFGLNIIKVDAKDRFLSKLAGVSDPERKRKIIGNEFIQVFDEEATKLNGMEFLAQGTLYTDVIESGTSTAQTIKSHHNVGGLPEDMQFKLIEPLRTLFKDEARELGEKLGMPSDLVWRQPFPGPGLGIRVIGEITEDKLEIVRDSDFILRDEIKKAGLDREIWQYFTVLPGIKSVGVMGDGRTYDYTVGIRAVTSIDGMTADFARIPWDVLQKISVRIVNEVDHVNRIVYDVTSKPPSTIEWE
modifications: GMP synthase
notes: protein expressed by Lactobacillus plantarum
B2: Glutamine-fructose-6-phosphate aminotransferase (protein, listed as Lactobacillus plantarum)
chain: MCGIVGVTGKDSAVSILLNGLEKLEYRGYDSAGIYVNDQDGHDYLVKEKGRIDDLRKEVGEAVHGSTGIGHTRWATHGEPSVANAHPQVSADGRFYLVHNGVIENFEDLKQTYLSDVTFKSQTDTEVIVQLVDRFVTKEGLSTLAAFRKTLGLLGHSSYGFLLMDKEDPDTLYVAKNKSPLLIGVGEGFNVVCSDSLAMLDQTKDFLELHDGEIVVVKPDEIKITNQAGEPVERKPFHVDIDAAQADKGTYPFYMLKEIDEQPNVMRKLSQVYLNDAGDPIINDDLLTALKAADRLYIVAAGTSYHAGLVGAKLFESLANVPTEVHVSSEFAYNQPLLSAHPFFIFLTQSGETADSREVLLNVNDQHFPSLTITNVPNSTLSREATYTLLLHAGPEIAVASTKAYTAQIALQAILAKALGVAVDQPAATAFDVKQQLALVANGMQSLVDEKATFEKIAKSALLNTPNAFYIGRGLDYAVSLETALKLKEISYVQAEGFASGELKHGTIALIEKDTPVIGIITQKNTAGLTRSNLQEVAARGAKTVTIVTDSLAKDGDTVILPTVDERLTALLSVVPGQLLAYYTSLNKGLDVDKPRNLAKSVTVE
modifications: Glutamine-fructose-6-phosphate aminotransferase
notes: as for B1
B3: Enolase 1 (protein, listed as Lactobacillus gasseri)
chain: MLKSVIENVHALEIFDSRGNPTVEVFVTLSNGVVGKAEVPSGASTGENEAVELRDGGSRLGGKGVMNAVNNVNTEINDALKGLDPHDQPNIDATMIALDGTPNKGRLGANAILGVSMATACAAAKDNHQPLYRYLGGTDLEMPQTFHNVINGGEHADNGIDIQEFMITPVAKTSFRDGFEKIVNVYHTLKKVLEDMGYETGLGDEGGFAPNMKNSEEALKALHESIIKAGYKPGEDIAIACDCAASYFYNKEDGKYHLEGKVLTDEELADYYDKLLDEFPELISMEDPYDENDVEGMVKFTESHKDRIQIVLDDFICTNPKLLNKAIHEGAGNASLIKLNQIGTVTETLETIRLSRKNGYNTMISHRSGETGDTFIADFAVAVNGGQLKSGAPARSERVEKYNRLLEIEEELGKGERLAFFPDNVDLD
modifications: enolase1
notes: protein expressed by Lactobacillus gasseri
B4: Phosphoketolase (protein, listed as Bifidobacterium dentium)
chain: MTSPVIGTPWKKLNAPVSEEAIEGVDKYWRAANYLSIGQIYLRSNPLMKEPFTREDVKHRLVGHWGTTPGLNFLIGHINRLIADHQQNTVIIMGPGHGGPAGTAQSYLDGTYTEYFPNITKDEAGLQKFFRQFSYPGGIPSHYAPETPGSIHEGGELGYALSHAYGAVMNNPSLFVPAIVGDGEAETGPLATGWQSNKLVNPRTDGIVLPILHLNGYKIANPTILSRISDEELHEFFHGMGYEPYEFVAGFDNEDHLSIHRRFAELFETVFDEICDIKAAAQTDDMTRPFYPMIIFRTPKGWTCPKFIDGKKTEGSWRSHQVPLASARDTEAHFEVLKNWLESYKPEELFDANGAVKPEVTAFMPTGELRIGENPNANGGRIREELNLPALEDYEVKEVAEYGHGWGQLEATRRLGVYTRDIIKNNPDSFRIFGPDETASNRLQAAYDVTNKQWDAGYLSAQVDEHMAVTGQVTEQLSEHQMEGFLEAYLLTGRHGIWSSYESFVHVIDSMLNQHAKWLEATVREIPWRKPISSMNLLVSSHVWRQDHNGFSHQDPGVTSVLLNKCFNNDHVIGIYFPVDSNMLLAVAEKCYKSTDMINAIIAGKQPAATWLTLDEARAELEKGAAEWEWASTAKSNDEAQIVLASAGDVPAQEIMAAADKLDAMGIKFKVVNVVDLVKLQSTKENDEAISDADFADLFTEDKPVLFAYHSYARDVRGLIYDRPNHDNFNVHGYEEQGSTTTPYDMVRVNNIDRYELVAEALRMIDADKYADKIDELEAFRKEAFQFAVDNGYDHPDYTDWVYSGVNTNKQGAVSATAATAGDNE
modifications: phosphoketolase
notes: protein expressed by Bifidobacterium dentium
B5: Phosphoglycerate kinase (protein, listed as Bifidobacterium dentium)
chain: MKTLKDLGDLKGKRVLVRADFNVPLDGTTITDDGRIKAALPTIKALREEGAKVILMAHLGRPKGKVVPELSLAPVATRLGELLGVEVPLASDTYGEDAQAKVAAMNDGDVVLLQNVRFNPEETSKDPEERAAYAKKIAALGEAFVSDGFGVVHRAQGSNYDVAADLPAAAGLLVEKEVKALSRATVDPERPLTVVLGGSKVSDKLGVIENLLDKADRLVIGGGMVYTFLKAKGLEVGTSLLEEDQVETVKGYIERAEKNGVELVLPTDIVVNPVFPKSDEDIAPEVVAADAIPADKMGLDIGPDSQKLFHDKIVDSKTVVWNGPMGVFEVPAFAAGTEAVAQGLVDATAAGAFTIVGGGDSASAVRNLGFPEDGFSHISTGGGASLEFLEGKELPGLKVLD
modifications: Phosphoglycerate kinase
notes: as for B4
B6: Prolable phosphoketolase (protein, listed as Bifidobacterium pseudolongum)
chain: MTNPVIGTPWQKLDRPVSEEAIEGMDKYWRVTNYMSIGQIYLRSNPLMKEPFTRDDVKHRLVGHWGTTPGLNFLLAHINRLIADHQQNTVFIMGPGHGGPAGTSQSYVDGTYTEYYPNITKDEAGLQKFFRQFSYPGGIPSHFAPETPGSIHEGGELGYALSHAYGAVMNNPSLFVPCIIGDGEAETGPLATGWQSNKLVNPRTDGIVLPILHLNGYKIANPTILARISDEELHDFFRGMGYHPYEFVAGFDNEDHMSIHRRFAELFETIFDEICDIKAAAQTDDMTRPFYPMLIFRTPKGWTCPKFIDGKKTEGSWRAHQVPLASARDTEEHFEVLKGWLESYKPEELFNADGSIKDDVTAFMPKGDLRIGANPNANGGVIREDLKLPELDQYEVTGVKEYGHGWGQVEAPRSLGAYCRDIIKNNPDSFRIFGPDETASNRLNATYEVTDKQWDNGYLSSLVDEHMAVTGQVTEQLSEHQCEGFLEAYLLTGRHGIWSSYESFVHVIDSMLNQHAKWLEATVREIPWRKPISSVNLLVSSHVWRQDHNGFSHQDPGVTSVLINKTFNNDHVTNIYFATDANMLLAISEKCFKSTNKINAIFAGKQPAPTWITLDEARAELEAGAAEWKWASNAENNDEVQVVLAAAGDVPTQEIMAASDALNKMGIKFKVVNVVDLLKLQSRENNDEALTDEEFTDLFTADKPVLFAYHSYAQDVRGLIYDRPNHDNFNVVGYKEQGSTTTPFDMVRVNDMDRYALQAAALKMIDADKYADKIDELNAFRQKAFQFAVDNGYDIPEFTDWVYPDVKVDETQMLSATAATAGDNE
modifications: Probable phosphoketolase
notes: protein expressed by Bifidobacterium pseudolongum subsp. globosum

Tests used:
[1] = tested on: non-transfected HEK cells; assay: Negative control: activation of non-transfected HEK cells; type: cell-based
Experimental: The activation of OT-R by bacterial peptides was analyzed by the measurement of calcium release from HEK cells transfected with human OT-R
As a negative control, no activation of non-transfected HEK cells with OT or bacterial peptides was observed.

human OT-R = molecular target: T1, human OT-R; assay: Activation of OT-R by bacterial peptides: calcium release from HEK cells transfected with human OT-R; type: cell-based; conditions: OTR expressing HEK cells
anti-oxytocin antibodies = assay: Proteomic analysis: 2D gel and OT immunodetection (OT IgG) of bacterial proteomes; type: binding; conditions: 2D-immunoblotting, spots identified by mass spectrometry
Experimental: In this study, 14 bacteria-extracted proteomes were analyzed: (i) from 5 Bifidobacterium species grown in anaerobe conditions, (ii) from 5 Lactobacillus species grown in anaerobe culture conditions and (iii) from 4 aerotolerant Lactobacillus species grown in aerobe conditions. Each proteome analysis was performed in triplicate and was further separated in 3 fractions i.e. soluble (S), membrane (M), and residual (R) resulting in 9 samples/proteome). Each fraction was initially screened by western blot (WB) for the presence OT-like reactivity to validate it for further 2D-SDS-PAGE analysis. […] Finally, all fractions have been analyzed using 2D gel technique and OT immunodetection. 2D gel electrophoresis allowed to improve visibility of the less abundant proteins in a complex sample. Thereby, all samples were analyzed at least once with this method to scan optimally each proteome in the search for OT mimicry. […] The specificity for OT-like staining was controlled by pre-adsorption of OT-IgG with OT peptide.
All protein spots in silver nitrate staining gels corresponding to OT-like spots in the membrane were excised and analyzed by mass spectrometry

| Molecule | activation of non-transfected HEK cells [1] | specific activation of OTR (human OT-R) | immune cross-reaction with anti-oxytocin antibodies (anti-oxytocin antibodies) |
| --- | --- | --- | --- |
| CC[C@H](C)[C@@H]1NC(=O)[C@H](Cc2ccc(O)cc2)NC(=O)[C@@H](N)CSSC[C@@H](C(=O)N2CCC[C@H]2C(=O)N[C@@H](CC(C)C)C(=O)NCC(N)=O)NC(=O)[C@H](CC(N)=O)NC(=O)[C@H](CCC(N)=O)NC1=O [OT, Oxytocin] | no activation | specifically activated OTR | – |
| B1 | – | – | immune cross-react with anti-oxytocin antibodies |
| B2 | – | – | immune cross-react with anti-oxytocin antibodies |
| B3 | – | – | immune cross-react with anti-oxytocin antibodies |
| B4 | – | – | immune cross-react with anti-oxytocin antibodies |
| B5 | – | – | immune cross-react with anti-oxytocin antibodies |
| B6 | – | – | immune cross-react with anti-oxytocin antibodies |

— US20250352589A1, “OXYTOCIN-MIMETIC COMPOSITIONS AND USES THEREOF” (INSTITUT NATIONAL DE LA SANTÉ ET DE LA RECHERCHE MÉDICALE, priority 2021, published 2025)
